The results in this text go back to patent US20260226133A1 (ANGELES THERAPEUTICS, published 2026).

One experiment has as its target T1, TAJ/TNFRSF19 (UniProt Q9NS68 30-423, limits assumed).
T1 construct: whole, on cells
T1 sequence (looked up): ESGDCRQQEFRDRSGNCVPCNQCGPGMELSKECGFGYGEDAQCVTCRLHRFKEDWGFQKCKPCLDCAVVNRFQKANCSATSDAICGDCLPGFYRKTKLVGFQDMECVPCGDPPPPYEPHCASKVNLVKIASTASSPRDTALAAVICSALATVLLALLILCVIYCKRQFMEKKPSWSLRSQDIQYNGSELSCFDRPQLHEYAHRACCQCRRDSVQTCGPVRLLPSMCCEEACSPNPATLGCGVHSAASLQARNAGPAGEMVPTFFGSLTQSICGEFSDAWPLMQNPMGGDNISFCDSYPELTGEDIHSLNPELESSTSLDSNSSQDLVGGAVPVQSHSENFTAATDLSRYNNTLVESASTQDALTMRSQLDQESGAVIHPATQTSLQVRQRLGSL
Nature of the experiment: Malibu-Glo assay; NLuc fusion supernatant on LNCaP cells, control 293FT cells.

In another experiment the target is T2, DLL3 (UniProt Q9NYJ7 27-618, limits assumed).
T2 construct: whole, on cells
T2 sequence (looked up): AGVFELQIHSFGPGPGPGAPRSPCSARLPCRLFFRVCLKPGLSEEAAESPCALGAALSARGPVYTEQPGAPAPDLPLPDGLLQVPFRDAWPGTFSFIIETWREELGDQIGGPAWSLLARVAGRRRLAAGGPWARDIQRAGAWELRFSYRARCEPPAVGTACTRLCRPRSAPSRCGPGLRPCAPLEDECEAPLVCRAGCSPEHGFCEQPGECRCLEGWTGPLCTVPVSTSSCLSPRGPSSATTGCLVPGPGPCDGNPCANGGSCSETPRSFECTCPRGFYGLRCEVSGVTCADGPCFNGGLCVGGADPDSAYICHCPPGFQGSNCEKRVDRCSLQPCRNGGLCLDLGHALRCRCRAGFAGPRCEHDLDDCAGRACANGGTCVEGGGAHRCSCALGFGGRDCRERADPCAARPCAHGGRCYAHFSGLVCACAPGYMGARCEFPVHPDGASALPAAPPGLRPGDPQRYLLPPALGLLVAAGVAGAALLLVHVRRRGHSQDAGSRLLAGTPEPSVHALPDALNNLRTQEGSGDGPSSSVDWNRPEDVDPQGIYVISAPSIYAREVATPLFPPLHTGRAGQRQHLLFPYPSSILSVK
Nature of the experiment: Malibu-Glo assay; NLuc fusion supernatant on NCI-H82 cells, control K562 cells.

The target of the next experiment is T3, IL23R (UniProt Q5VWK5 24-629, limits assumed).
T3 construct: whole, on cells
T3 sequence (looked up): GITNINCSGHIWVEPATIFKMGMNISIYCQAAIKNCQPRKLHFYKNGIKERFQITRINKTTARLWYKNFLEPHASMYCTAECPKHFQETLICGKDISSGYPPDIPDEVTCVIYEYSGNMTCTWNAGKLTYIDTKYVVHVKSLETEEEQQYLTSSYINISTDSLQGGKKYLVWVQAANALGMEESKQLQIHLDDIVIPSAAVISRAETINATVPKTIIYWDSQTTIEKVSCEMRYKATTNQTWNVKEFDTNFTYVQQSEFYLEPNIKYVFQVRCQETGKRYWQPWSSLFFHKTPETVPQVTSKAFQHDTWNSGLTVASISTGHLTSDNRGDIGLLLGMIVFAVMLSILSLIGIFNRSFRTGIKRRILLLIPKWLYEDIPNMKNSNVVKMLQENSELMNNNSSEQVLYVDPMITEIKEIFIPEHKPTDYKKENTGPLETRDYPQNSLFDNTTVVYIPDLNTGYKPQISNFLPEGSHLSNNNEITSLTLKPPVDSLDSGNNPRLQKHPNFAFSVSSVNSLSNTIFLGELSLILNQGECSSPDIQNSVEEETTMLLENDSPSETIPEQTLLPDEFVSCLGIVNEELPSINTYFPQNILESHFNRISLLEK
The experiment can be described thus: Malibu-Glo assay; NLuc fusion supernatant on L363 cells, control K562 cells.

Experiment [1] addresses T4, BCMA (UniProt Q02223 1-184, limits assumed).
T4 construct: whole, on cells; also called TNF receptor family member B cell maturation (BCMA)
T4 sequence (looked up): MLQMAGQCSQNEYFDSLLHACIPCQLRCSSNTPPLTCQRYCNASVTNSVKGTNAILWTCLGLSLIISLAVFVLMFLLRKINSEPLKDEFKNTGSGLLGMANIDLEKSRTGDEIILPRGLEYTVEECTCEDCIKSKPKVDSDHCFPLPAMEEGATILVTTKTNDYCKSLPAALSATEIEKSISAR
The experiment can be described thus: Malibu-Glo assay; NLuc fusion supernatant on L363 cells, control Jurkat cells.

Experiment [2] addresses T4, BCMA. Nature of the experiment: Malibu-Glo assay; NLuc fusion supernatant on H929 cells, control K562 cells.
A further experiment concerns the target T5, CD33 (UniProt P20138 18-364, limits assumed).
T5 construct: whole, on cells
Nature of the experiment: Malibu-Glo assay; NLuc fusion supernatant on HL60 cells, control Jurkat cells.

In another experiment the target is T6, CD20 (UniProt P11836 1-297, limits assumed).
T6 construct: whole, on cells
T6 sequence (looked up): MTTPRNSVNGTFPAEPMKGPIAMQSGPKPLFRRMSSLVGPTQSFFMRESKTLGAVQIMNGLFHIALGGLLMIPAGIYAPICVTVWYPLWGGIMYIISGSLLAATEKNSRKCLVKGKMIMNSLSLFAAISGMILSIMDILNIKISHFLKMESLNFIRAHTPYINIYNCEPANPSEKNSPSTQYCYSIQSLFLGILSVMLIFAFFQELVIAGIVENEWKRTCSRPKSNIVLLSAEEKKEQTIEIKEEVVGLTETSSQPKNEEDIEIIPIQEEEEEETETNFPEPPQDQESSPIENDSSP
The experiment can be described thus: Malibu-Glo assay; NLuc fusion supernatant on RAJI cells, control K562 cells.

The target in the next experiment is T7, CD19 (UniProt P15391 20-556, limits assumed).
T7 construct: whole, on cells
T7 sequence (looked up): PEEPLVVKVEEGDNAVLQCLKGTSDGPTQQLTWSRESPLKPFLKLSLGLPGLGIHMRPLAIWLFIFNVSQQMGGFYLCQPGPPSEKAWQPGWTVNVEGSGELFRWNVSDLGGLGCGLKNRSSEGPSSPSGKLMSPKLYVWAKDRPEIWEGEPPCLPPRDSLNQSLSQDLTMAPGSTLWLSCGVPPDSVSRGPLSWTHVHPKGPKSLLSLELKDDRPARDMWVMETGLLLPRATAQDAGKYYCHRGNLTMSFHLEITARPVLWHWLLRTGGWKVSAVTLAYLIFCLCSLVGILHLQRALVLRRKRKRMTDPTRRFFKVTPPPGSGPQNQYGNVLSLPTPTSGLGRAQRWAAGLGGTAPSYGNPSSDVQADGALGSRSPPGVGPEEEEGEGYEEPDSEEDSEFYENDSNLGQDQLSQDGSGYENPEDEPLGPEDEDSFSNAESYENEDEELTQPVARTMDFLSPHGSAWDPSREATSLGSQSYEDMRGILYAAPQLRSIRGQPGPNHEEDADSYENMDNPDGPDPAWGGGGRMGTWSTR
Nature of the experiment: Malibu-Glo assay; NLuc fusion supernatant on RAJI cells, control Jurkat cells.

In a further experiment the target is T8, STEAP2 (UniProt Q8NFT2 1-490, limits assumed).
T8 construct: whole, on cells
T8 sequence (looked up): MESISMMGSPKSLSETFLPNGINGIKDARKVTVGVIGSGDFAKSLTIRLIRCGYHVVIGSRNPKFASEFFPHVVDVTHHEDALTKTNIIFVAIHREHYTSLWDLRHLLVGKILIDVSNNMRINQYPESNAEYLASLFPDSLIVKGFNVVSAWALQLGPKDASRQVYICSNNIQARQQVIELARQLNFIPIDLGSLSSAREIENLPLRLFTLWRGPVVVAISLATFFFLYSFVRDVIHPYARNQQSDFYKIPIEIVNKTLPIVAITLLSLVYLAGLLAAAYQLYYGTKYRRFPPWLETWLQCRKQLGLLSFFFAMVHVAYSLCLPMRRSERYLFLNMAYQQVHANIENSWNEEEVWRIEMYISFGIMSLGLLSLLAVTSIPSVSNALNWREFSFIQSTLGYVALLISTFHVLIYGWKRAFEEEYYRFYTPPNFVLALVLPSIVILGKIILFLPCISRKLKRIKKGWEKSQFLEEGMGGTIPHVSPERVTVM
Nature of the experiment: Malibu-Glo assay; NLuc fusion supernatant on LNCaP cells, control K562 cells.

T5 sequence (P20138 18-364 limits assumed): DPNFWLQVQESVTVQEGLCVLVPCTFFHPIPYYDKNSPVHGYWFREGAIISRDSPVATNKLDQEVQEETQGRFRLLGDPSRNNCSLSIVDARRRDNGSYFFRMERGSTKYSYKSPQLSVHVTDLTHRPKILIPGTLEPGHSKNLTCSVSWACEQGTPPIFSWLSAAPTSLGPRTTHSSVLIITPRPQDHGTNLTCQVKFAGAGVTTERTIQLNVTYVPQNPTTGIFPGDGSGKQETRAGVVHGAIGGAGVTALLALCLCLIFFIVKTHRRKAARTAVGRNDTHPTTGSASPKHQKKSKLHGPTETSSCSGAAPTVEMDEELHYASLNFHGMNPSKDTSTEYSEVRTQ

B1: KN5-USC1-R3D scFv (TAJ), NLuc fusion (scFv)
chain: QIVLTQSPAIMSASPGEKVTMTCSASSSVSFMHWYQQKSGTSPKRWIYDTSTLASGVPARFGGSGSGTSYSLTISSMEAEDAATYYCQQWSSNPLTFGAGTKLELKRGGGGSGGGGSGGGGSQVQLQQSGPELVKPGASVRISCKASGYTFTSYYIHWVKQRPGQGLEWIGWIYPGNLNTKYNEKFKGKATLTADKSSSTAYMQLSSLTSEDSAVYFCARYDWYFDVWGAGTTVTVSS
As for B1, in the experiment with TAJ/TNFRSF19, the “Fold Change (Luc activity, target cell line over control cell line)” value (shortened to “Fold Change”) turned out to be 4.35 fold.

B2: DLL3-USC5 vHH (DLL3), NLuc fusion (VHH)
VHH: QVQLVESGGGVVQPGGSLRLSCAASFSGYGVSTMAWFRQAPGKGLEGVAAITVGSGNTYYADSVKGRFTISRDNSKNTVYLQMNSLRAEDTAMYYCAVGWLSGGSWHVPGRYNYWGQGTLVTVSS
As for B2, in the experiment with DLL3, the “Fold Change” value came out at 1.7 fold.

B3: IL23R-SANG-11 scFv (IL23R), NLuc fusion (scFv)
chain: DIQMTQSPSSLSASVGDRVTITCQASENIYSFLAWYQQKPGKAPKLLIYSASKLAAGVPSRFSGSGSGTDFTLTISSLQPEDFATYYCQQTNRYSNPDIYNVFGQGTKLTVLGGGGGSGGGGSGGGGSEVQLVESGGGLVQPGGSLRLSCAASGIDFNSNYYMCWVRQAPGKGLEWIGCIYVGSHVNTYYANWAKGRFTISRDNSKNTVYLQMNSLRAEDTAVYYCATSGSSVLYFKFWGQGTLVTVSS
As for B3, the “Fold Change” value with IL23R was 2.37 fold.

B4: hu-E59D-US3 vHH (BCMA), NLuc fusion (VHH)
VHH: EVQLVESGGGLVQPGGSLRLSCAASGRTFTMGWFRQAPGKGREFVAAISLSPTLAYYADSVKGRFTISRDNSKNTVVLQMNSLRAEDTAVYYCAADRKSVMSIRPDYWGQGTQVTVSS
With B4, the “Fold Change” value with BCMA [1] turned out to be 2 fold.

B5: huE59D-AT2 vHH (BCMA), NLuc fusion (VHH)
VHH: EVQLVESGGGLVQPGGSLRLSCAASGRTFTMGWYRQAPGKEREFVAAISLSPTLAYYADSVKGRFTISRDNSKNTVVLQMNSLRAEDTALYYCAADRKSVMSIRPDYWGQGTLVTVSS
Take B5: the “Fold Change” value in the experiment with BCMA [2] stood at 2.99 fold.

B6: E59D-USC1 vHH (BCMA), NLuc fusion (VHH)
VHH: QVQLVESGGGLVQPGGSLRLSCAASGRTFTMGWYRQAPGKGLEFVSAISLSPTLAYYADSVKGRFTISRDNSKNTVVLQMNSLRAEDTALYYCAADRKSVMSIRPDYWGQGTLVTVSS
With B6, the “Fold Change” value with BCMA [2] was found to be 2.57 fold.

B7: AT264-S30G vHH (CD33), NLuc fusion (VHH)
VHH: EVQLVESGGGSVQAGGSLRLSCAASGYTYGINCMGWFRQAPGKEREGVAVISTGGGRTDYRDSVKGRFTISQDNAKNTVYLQMNSLKPEDTAMYYCAGKTTYPGYGCGLGRSAYNYWGQGTQVTVSS
In the case of B7, the “Fold Change” value in the experiment with CD33 came out at 28 fold.

B8: huCD20-AT1 vHH (CD20), NLuc fusion (VHH)
VHH: EVQLLESGGGLVQPGGSLRLSCAASGRTFSMGWYRQAPGKGLEFVSAITYSGGSPYYADSVKGRFTISRDNSKNTVYLQMNSLRAEDTAVYYCAANPTYGSDWNAENWGQGTLVTVSS
As to B8, in the experiment with CD20, the “Fold Change” value turned out to be 15.6 fold.

B9: hu-mROO5-1 scFv (CD19), NLuc fusion (scFv)
chain: DIQMTQSPSSLSASVGDRVTITCKASDHINNWLAWYQQKPGQAPKLLIYGATTLETGVPSRFSGSGSGTDYTLTISSLQPEDFATYYCQQSWNTPWTFGQGTKLEIKRGGGGSGGGGSGGGGSQVQLQQPGAELVKPGASVKMSCKASGYAFSSYWINWMKQKPGQGLEWIGQIYPGDGDTNYNGKFKGRATLTADTSSSTAYMQLSSLTSEDSAVYFCARSITTVVGCAMDYWGQGTSVTVSS
As for B9, in the experiment with CD19, the “Fold Change” value came out at 933 fold.

B10: STEAP2-RGN-1162-USC1 scFv (STEAP2), NLuc fusion (scFv)
chain: QVQLQQSGPGLVKPSQTLSLTCAISGDSVSSNRAAWNWIRQSPSRGLQWLGRTYYRSKWYNDYAVSLRSRITINPVTSKNQVALHMNSVTPEDTAVYYCARAGIVVVPGPETFYYYDHGLDVWGQGTTVTVSSGGGGSGGGGSGGGGSDIQMTQSPSSLSASVGDRVTITCRASQSIRNYLNWYQQKPGKAPELLIHAASSLQSGVPSRFSGSGSGTDFTLTISSLQPEDFASYYCQQSYSAPPITFGQGTRLEIK
As for B10, the “Fold Change” value in the experiment with STEAP2 was found to be 27.4 fold.
